Assay [1] addresses human CD40 (human, UniProt P25942 21-277). As to the kind of experiment: cell-based or functional assay.
Assay [2] concerns the target T1, purified human C1q (human, UniProt P02745 23-245; P02746 28-253; P02747 29-245).
T1 construct: Purified C1q, Quidel Cat # A400; multimer of A, B and C chains
The assay can be described thus: C1q binding ELISA: plate coated with 1 µg/mL antibody, purified C1q titrated 0.010-30 µg/mL; SD 0.8, n 3.
Method: (§1) A binding ELISA was performed to evaluate the effect of different substitutions on C1q binding. […] Plates were washed and blocked for 1 hour at RT with 200 μL/well 0.5×PBS supplemented with 0.025% Tween 20 and 0.1% gelatin while shaking. […] The reaction was stopped by the addition of 100 μL 2% oxalic acid. Absorbance was measured at 405 nm in a BioTek EL808 Microplate Reader (BioSPX). Log transformed data were analyzed by fitting sigmoidal dose-response curves with variable slope using GraphPad Prism software.

The target in assay [3] is T1, purified human C1q. As to the kind of experiment: C1q binding ELISA: plate coated with 1 µg/mL antibody, purified C1q titrated 0.010-30 µg/mL; SD 0.1, n 3.
Method: as §1
The target of assay [4] is T1, purified human C1q. As to the kind of experiment: C1q binding ELISA (Example 6): plate coated with 1 µg/mL antibody, purified C1q titrated; SD 3.9, n 3. On the technique in general: An ELISA detects its analyte on a solid surface through an enzyme-linked reagent.
Method: as §1
Assay [5] deals with T1, purified human C1q. As to the kind of experiment: C1q binding ELISA: plate coated with 1 µg/mL antibody, purified C1q titrated 0.010-30 µg/mL; SD 0.2, n 3.
Method: as §1
Assay [6] addresses T1, purified human C1q. As to the kind of experiment: C1q binding ELISA (Example 6): plate coated with 1 µg/mL antibody, purified C1q titrated; SD 0.1, n 3.
Method: as §1
The target in assay [7] is human 4-1BB (human, UniProt Q07011 24-255). The assay can be described thus: cell-based or functional assay.
human 4-1BB, sequence (Q07011 24-255): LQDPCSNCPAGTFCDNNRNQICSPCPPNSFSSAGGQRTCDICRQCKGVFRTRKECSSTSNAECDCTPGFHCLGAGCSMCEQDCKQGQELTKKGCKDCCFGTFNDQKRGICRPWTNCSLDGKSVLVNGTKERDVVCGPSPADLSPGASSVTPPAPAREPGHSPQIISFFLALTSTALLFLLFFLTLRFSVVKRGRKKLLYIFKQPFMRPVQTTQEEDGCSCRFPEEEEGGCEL

human CD40, sequence (P25942 21-277): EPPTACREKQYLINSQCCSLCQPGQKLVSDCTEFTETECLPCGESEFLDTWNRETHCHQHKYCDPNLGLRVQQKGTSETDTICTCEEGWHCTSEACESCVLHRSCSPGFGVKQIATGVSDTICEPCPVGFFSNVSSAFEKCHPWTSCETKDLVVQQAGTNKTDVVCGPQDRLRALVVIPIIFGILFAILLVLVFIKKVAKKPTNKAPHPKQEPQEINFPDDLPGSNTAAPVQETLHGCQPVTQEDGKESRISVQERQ

B1: IgG1-CD40-SGN40 (antibody)
heavy: not shown
VL: DIQMTQSPSSLSASVGDRVTITCRSSQSLVHSNGNTFLHWYQQKPGKAPKLLIYTVSNRFSGVPSRFSGSGSGTDFTLTISSLQPEDFATYFCSQTTHVPWTFGQGTKVEIK
Turning to B1, the “CD40 response, luciferase reporter cells, EC50” value (from here on “CD40 response”) in assay [1] was determined as 3.36 µg/mL.

B2: IgG1-CD40-SGN40-K326W/E333S/E430G (antibody)
heavy: EVQLVESGGGLVQPGGSLRLSCAASGYSFTGYYIHWVRQAPGKGLEWVARVIPNAGGTSYNQKFKGRFTLSVDNSKNTAYLQMNSLRAEDTAVYYCAREGIYWWGQGTLVTVSSASTKGPSVFPLAPSSKSTSGGTAALGCLVKDYFPEPVTVSWNSGALTSGVHTFPAVLQSSGLYSLSSVVTVPSSSLGTQTYICNVNHKPSNTKVDKRVEPKSCDKTHTCPPCPAPELLGGPSVFLFPPKPKDTLMISRTPEVTCVVVDVSHEDPEVKFNWYVDGVEVHNAKTKPREEQYNSTYRVVSVLTVLHQDWLNGKEYKCKVSNWALPAPISKTISKAKGQPREPQVYTLPPSREEMTKNQVSLTCLVKGFYPSDIAVEWESNGQPENNYKTTPPVLDSDGSFFLYSKLTVDKSRWQQGNVFSCSVMHGALHNHYTQKSLSLSPGK
VL: DIQMTQSPSSLSASVGDRVTITCRSSQSLVHSNGNTFLHWYQQKPGKAPKLLIYTVSNRFSGVPSRFSGSGSGTDFTLTISSLQPEDFATYFCSQTTHVPWTFGQGTKVEIK
Consider B2, for which, in assay [1], the “CD40 response” value stood at 0.018 µg/mL.

B3: IgG1-CD40-SGN40-E430G (antibody)
heavy: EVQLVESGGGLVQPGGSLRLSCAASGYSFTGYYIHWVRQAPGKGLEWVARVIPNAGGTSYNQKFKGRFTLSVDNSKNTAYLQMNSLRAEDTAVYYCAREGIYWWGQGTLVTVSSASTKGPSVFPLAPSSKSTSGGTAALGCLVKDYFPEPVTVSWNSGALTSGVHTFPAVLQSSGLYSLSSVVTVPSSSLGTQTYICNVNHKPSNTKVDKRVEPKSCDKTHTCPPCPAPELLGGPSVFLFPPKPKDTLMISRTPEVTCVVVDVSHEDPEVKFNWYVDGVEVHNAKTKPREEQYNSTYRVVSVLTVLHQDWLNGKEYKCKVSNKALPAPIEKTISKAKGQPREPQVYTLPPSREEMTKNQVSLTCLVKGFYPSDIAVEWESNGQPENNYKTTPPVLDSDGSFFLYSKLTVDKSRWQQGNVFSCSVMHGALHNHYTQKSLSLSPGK
VL: DIQMTQSPSSLSASVGDRVTITCRSSQSLVHSNGNTFLHWYQQKPGKAPKLLIYTVSNRFSGVPSRFSGSGSGTDFTLTISSLQPEDFATYFCSQTTHVPWTFGQGTKVEIK
In the case of B3, the “CD40 response” value in assay [1] came out at 0.336 µg/mL.

B4: IgG1-CD40-CP870893 (antibody)
heavy: not shown
VL: DIQMTQSPSSVSASVGDRVTITCRASQGIYSWLAWYQQKPGKAPNLLIYTASTLQSGVPSRFSGSGSGTDFTLTISSLQPEDFATYYCQQANIFPLTFGGGTKVEIK
For B4, in assay [1], the “CD40 response” value worked out at 0.187 µg/mL.

B5: IgG1-CD40-CP870893-K326W/E333S/E430G (antibody)
heavy: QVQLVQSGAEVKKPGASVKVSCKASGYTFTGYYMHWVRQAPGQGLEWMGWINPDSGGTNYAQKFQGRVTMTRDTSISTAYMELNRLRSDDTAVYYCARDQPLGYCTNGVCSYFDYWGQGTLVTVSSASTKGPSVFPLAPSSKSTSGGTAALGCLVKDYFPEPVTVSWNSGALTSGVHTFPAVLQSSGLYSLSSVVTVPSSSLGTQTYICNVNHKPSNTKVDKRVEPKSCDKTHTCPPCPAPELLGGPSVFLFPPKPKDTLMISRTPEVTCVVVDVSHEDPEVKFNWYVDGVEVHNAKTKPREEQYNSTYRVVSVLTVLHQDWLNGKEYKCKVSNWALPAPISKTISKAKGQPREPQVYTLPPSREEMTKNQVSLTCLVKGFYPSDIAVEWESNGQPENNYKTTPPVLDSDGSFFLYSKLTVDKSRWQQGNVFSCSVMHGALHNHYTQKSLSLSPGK
VL: DIQMTQSPSSVSASVGDRVTITCRASQGIYSWLAWYQQKPGKAPNLLIYTASTLQSGVPSRFSGSGSGTDFTLTISSLQPEDFATYYCQQANIFPLTFGGGTKVEIK
In the case of B5, the “CD40 response” value in assay [1] is 0.0459 µg/mL.

B6: IgG1-hDR5-01-G56T-E333A/P396L/E430G (antibody)
heavy: EVQLQQSGAEVVKPGASVKLSCKASGFNIKDTFIHWVKQAPGQGLEWIGRIDPANTNTKYDPKFQGKATITTDTSSNTAYMELSSLRSEDTAVYYCVRGLYTYYFDYWGQGTLVTVSSASTKGPSVFPLAPSSKSTSGGTAALGCLVKDYFPEPVTVSWNSGALTSGVHTFPAVLQSSGLYSLSSVVTVPSSSLGTQTYICNVNHKPSNTKVDKRVEPKSCDKTHTCPPCPAPELLGGPSVFLFPPKPKDTLMISRTPEVTCVVVDVSHEDPEVKFNWYVDGVEVHNAKTKPREEQYNSTYRVVSVLTVLHQDWLNGKEYKCKVSNKALPAPIAKTISKAKGQPREPQVYTLPPSREEMTKNQVSLTCLVKGFYPSDIAVEWESNGQPENNYKTTPLVLDSDGSFFLYSKLTVDKSRWQQGNVFSCSVMHGALHNHYTQKSLSLSPGK
light: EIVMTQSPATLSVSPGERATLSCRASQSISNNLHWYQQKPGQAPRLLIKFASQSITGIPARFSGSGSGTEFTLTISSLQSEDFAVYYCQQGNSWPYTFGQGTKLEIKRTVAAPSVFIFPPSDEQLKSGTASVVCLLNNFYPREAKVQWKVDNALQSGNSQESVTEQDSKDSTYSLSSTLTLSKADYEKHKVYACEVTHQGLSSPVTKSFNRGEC
notes: IgG1,kappa
A word on the EC50: it is the concentration giving half of the maximal effect. With B6, it took 1.9 µg/mL to reach a half-maximal effect in assay [2] (EC50).

B7: IgG1-hDR5-01-G56T-K326A/E333A/E430G (antibody)
heavy: EVQLQQSGAEVVKPGASVKLSCKASGFNIKDTFIHWVKQAPGQGLEWIGRIDPANTNTKYDPKFQGKATITTDTSSNTAYMELSSLRSEDTAVYYCVRGLYTYYFDYWGQGTLVTVSSASTKGPSVFPLAPSSKSTSGGTAALGCLVKDYFPEPVTVSWNSGALTSGVHTFPAVLQSSGLYSLSSVVTVPSSSLGTQTYICNVNHKPSNTKVDKRVEPKSCDKTHTCPPCPAPELLGGPSVFLFPPKPKDTLMISRTPEVTCVVVDVSHEDPEVKFNWYVDGVEVHNAKTKPREEQYNSTYRVVSVLTVLHQDWLNGKEYKCKVSNAALPAPIAKTISKAKGQPREPQVYTLPPSREEMTKNQVSLTCLVKGFYPSDIAVEWESNGQPENNYKTTPPVLDSDGSFFLYSKLTVDKSRWQQGNVFSCSVMHGALHNHYTQKSLSLSPGK
light: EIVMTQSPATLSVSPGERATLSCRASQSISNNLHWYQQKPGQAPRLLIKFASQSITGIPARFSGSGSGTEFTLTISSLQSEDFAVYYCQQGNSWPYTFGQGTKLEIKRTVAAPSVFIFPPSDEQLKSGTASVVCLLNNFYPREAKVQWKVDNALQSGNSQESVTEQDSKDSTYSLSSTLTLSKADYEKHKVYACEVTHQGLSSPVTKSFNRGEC
notes: IgG1,kappa
Take B7: a half-maximal response in assay [3] (EC50) required 0.8 µg/mL.

B8: IgG113F-hDR5-01-G56T-E430G (antibody)
heavy: EVQLQQSGAEVVKPGASVKLSCKASGFNIKDTFIHWVKQAPGQGLEWIGRIDPANTNTKYDPKFQGKATITTDTSSNTAYMELSSLRSEDTAVYYCVRGLYTYYFDYWGQGTLVTVSSASTKGPSVFPLAPSSKSTSGGTAALGCLVKDYFPEPVTVSWNSGALTSGVHTFPAVLQSSGLYSLSSVVTVPSSSLGTQTYICNVNHKPSNTKVDKRVEPKSCDKTHTCPPCPAPELLGGPSVFLFPPKPKDTLMISRTPEVTCVVVDVSHEDPEVQFKWYVDGVEVHNAKTKPREEQYNSTFRVVSVLTVLHQDWLNGKEYKCKVSNKALPAPIEKTISKTKGQPREPQVYTLPPSREEMTKNQVSLTCLVKGFYPSDIAVEWESSGQPENNYNTTPPMLDSDGSFFLYSKLTVDKSRWQQGNIFSCSVMHGALHNHYTQKSLSLSPGK
light: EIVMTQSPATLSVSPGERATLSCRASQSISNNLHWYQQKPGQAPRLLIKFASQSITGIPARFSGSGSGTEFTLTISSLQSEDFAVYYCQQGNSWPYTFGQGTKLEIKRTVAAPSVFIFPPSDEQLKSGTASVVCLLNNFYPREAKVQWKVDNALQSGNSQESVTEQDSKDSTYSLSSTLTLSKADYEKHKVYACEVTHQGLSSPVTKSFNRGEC
notes: also called IgG113F-E430G
In assay [4], B8 yielded an EC50 of 11.4 µg/mL.

B9: IgG1-hDR5-01-G56T-K326A/E333A/P396L/E430G (antibody)
heavy: EVQLQQSGAEVVKPGASVKLSCKASGFNIKDTFIHWVKQAPGQGLEWIGRIDPANTNTKYDPKFQGKATITTDTSSNTAYMELSSLRSEDTAVYYCVRGLYTYYFDYWGQGTLVTVSSASTKGPSVFPLAPSSKSTSGGTAALGCLVKDYFPEPVTVSWNSGALTSGVHTFPAVLQSSGLYSLSSVVTVPSSSLGTQTYICNVNHKPSNTKVDKRVEPKSCDKTHTCPPCPAPELLGGPSVFLFPPKPKDTLMISRTPEVTCVVVDVSHEDPEVKFNWYVDGVEVHNAKTKPREEQYNSTYRVVSVLTVLHQDWLNGKEYKCKVSNAALPAPIAKTISKAKGQPREPQVYTLPPSREEMTKNQVSLTCLVKGFYPSDIAVEWESNGQPENNYKTTPLVLDSDGSFFLYSKLTVDKSRWQQGNVFSCSVMHGALHNHYTQKSLSLSPGK
light: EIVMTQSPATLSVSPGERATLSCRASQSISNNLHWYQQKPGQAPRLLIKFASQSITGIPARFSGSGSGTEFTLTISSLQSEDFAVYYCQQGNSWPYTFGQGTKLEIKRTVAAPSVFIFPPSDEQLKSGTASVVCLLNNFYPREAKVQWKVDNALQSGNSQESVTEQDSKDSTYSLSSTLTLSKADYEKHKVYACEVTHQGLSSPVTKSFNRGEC
notes: IgG1,kappa
Turning to B9, in assay [5], the half-maximal effective concentration (EC50) came out at 1.3 µg/mL.

B10: IgG1-hDR5-01-G56T-S267E/H268F/S324T/E430G (antibody)
heavy: EVQLQQSGAEVVKPGASVKLSCKASGFNIKDTFIHWVKQAPGQGLEWIGRIDPANTNTKYDPKFQGKATITTDTSSNTAYMELSSLRSEDTAVYYCVRGLYTYYFDYWGQGTLVTVSSASTKGPSVFPLAPSSKSTSGGTAALGCLVKDYFPEPVTVSWNSGALTSGVHTFPAVLQSSGLYSLSSVVTVPSSSLGTQTYICNVNHKPSNTKVDKRVEPKSCDKTHTCPPCPAPELLGGPSVFLFPPKPKDTLMISRTPEVTCVVVDVEFEDPEVKFNWYVDGVEVHNAKTKPREEQYNSTYRVVSVLTVLHQDWLNGKEYKCKVTNKALPAPIEKTISKAKGQPREPQVYTLPPSREEMTKNQVSLTCLVKGFYPSDIAVEWESNGQPENNYKTTPPVLDSDGSFFLYSKLTVDKSRWQQGNVFSCSVMHGALHNHYTQKSLSLSPGK
light: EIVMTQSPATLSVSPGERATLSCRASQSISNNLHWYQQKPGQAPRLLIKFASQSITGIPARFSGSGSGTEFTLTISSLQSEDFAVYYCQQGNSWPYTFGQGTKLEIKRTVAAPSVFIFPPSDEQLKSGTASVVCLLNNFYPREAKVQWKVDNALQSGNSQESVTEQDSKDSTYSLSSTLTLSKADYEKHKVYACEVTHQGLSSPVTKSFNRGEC
notes: IgG1,kappa
Turning to B10, the response in assay [6] was half-maximal at 0.5 µg/mL (EC50).

B11: IgG1-hDR5-01-G56T-K326A/P396L/E430G (antibody)
heavy: EVQLQQSGAEVVKPGASVKLSCKASGFNIKDTFIHWVKQAPGQGLEWIGRIDPANTNTKYDPKFQGKATITTDTSSNTAYMELSSLRSEDTAVYYCVRGLYTYYFDYWGQGTLVTVSSASTKGPSVFPLAPSSKSTSGGTAALGCLVKDYFPEPVTVSWNSGALTSGVHTFPAVLQSSGLYSLSSVVTVPSSSLGTQTYICNVNHKPSNTKVDKRVEPKSCDKTHTCPPCPAPELLGGPSVFLFPPKPKDTLMISRTPEVTCVVVDVSHEDPEVKFNWYVDGVEVHNAKTKPREEQYNSTYRVVSVLTVLHQDWLNGKEYKCKVSNAALPAPIEKTISKAKGQPREPQVYTLPPSREEMTKNQVSLTCLVKGFYPSDIAVEWESNGQPENNYKTTPLVLDSDGSFFLYSKLTVDKSRWQQGNVFSCSVMHGALHNHYTQKSLSLSPGK
light: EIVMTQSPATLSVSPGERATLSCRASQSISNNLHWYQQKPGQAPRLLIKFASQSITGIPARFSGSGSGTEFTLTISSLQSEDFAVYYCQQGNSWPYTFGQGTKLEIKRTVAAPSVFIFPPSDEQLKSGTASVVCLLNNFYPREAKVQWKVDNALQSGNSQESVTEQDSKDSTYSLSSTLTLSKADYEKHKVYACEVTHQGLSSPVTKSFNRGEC
notes: IgG1,kappa
For B11, the EC50 in assay [3] was found to be 0.6 µg/mL.

B12: IgG1-BMS-663513-K326W/E333S/E430G (antibody, V domains shown)
VH: QVQLQQWGAGLLKPSETLSLTCAVYGGSFSGYYWSWIRQSPEKGLEWIGEINHGGYVTYNPSLESRVTISVDTSKNQFSLKLSSVTAADTAVYYCARDYGPGNYDWYFDLWGRGTLVTVSS
VL: EIVLTQSPATLSLSPGERATLSCRASQSVSSYLAWYQQKPGQAPRLLIYDASNRATGIPARFSGSGSGTDFTLTISSLEPEDFAVYYCQQRSNWPPALTFGGGTKVEIK
Take B12: the “4-1BB signaling, luciferase reporter Jurkat cells, EC50” value in assay [7] stood at 0.0329 µg/mL.

(Values after patent publication US20200181277A1 (Genmab, published 2020).)
